Assay [1] concerns PPIs of the SKEMPI data set (by PDBID). Put plainly: SKEMPI experimental ΔΔG, single mutations to alanine. The assay is classed as binding. The settings on record: for sk_class: class of the SKEMPI experimental ΔΔG.
The test system is the same in assay [2]. Particulars: ref SKEMPI, cited from earlier work; for sk_ddG_kJ (SKEMPI experimental ΔΔG of binding, mutation to alanine): single mutation to alanine in the complex of the given PDBID; for sk_ddG_kJ (SKEMPI experimental ΔΔG, mutation to alanine) / sk_ddG_kJ (SKEMPI experimental ΔΔG, single mutation to alanine): r_group DERKH; for sk_ddG_kJ (SKEMPI experimental ΔΔG, single mutation to alanine): complex given by PDBID.

Setting [3] is: Positive / Neutral / Negative by ΔΔG threshold 4.184 kJ/mol, ref SKEMPI.
[4] abbreviates: class by the 4.184 kJ/mol threshold, r_group DERKH.
Where [5] appears, read: single mutation to alanine, complex by PDBID, sheet sortedByGroup.

Changes are numbered by the printed parent chain. Where two headings read alike, the source gives them in different places.

B1: 2PCC DA34A (protein, UniProt P00431 68-361, looked up, variant D34A)
Cytochrome c peroxidase, …: TTPLVHVASVEKGRSYEDFQKVYNAIALKLREDAEYDNYIGYGPVLVRLAWHTSGTWDKHDNTGGSYGGTYRFKKEFNDPSNAGLQNGFKFLEPIHKEFPWISSGDLFSLGGVTAVQEMQGPKIPWRCGRVDTPEDTTPDNGRLPDADKDADYVRTFFQRLNMNDREVVALMGAHALGKTHLKNSGYEGPWGAANNVFTNEFYLNLLNEDWKLEKNDANNEQWDSKSGYMMLPTDYSLIQDPKYLSIVKEYANDQDKFFKDFSKAFEKLLENGITFPKDAPSPFIFKTLEEQGL
On to B1, for which the “sk_class (class of the SKEMPI experimental ΔΔG)” value in assay [1] (setting [3]) is “Neutral (neutral (little effect) 4.184 kJ/mol < ΔΔG > −4.184 kJ/mol)”. The “sk_ddG_kJ (SKEMPI experimental ΔΔG of binding, mutation to alanine)” value in assay [2] is reported as -3.81 kJ.

B2: 2PCC EA290A (protein, UniProt P00431 68-361, looked up, variant E290A)
Cytochrome c peroxidase, …: B1 Cytochrome c peroxidase, … with A34D, E290A
As to B2, the “sk_class (class of the SKEMPI experimental ΔΔG)” value in assay [1] (setting [3]) is recorded as “Positive (positive (a hot residue) ΔΔG ≥ 4.184 kJ/mol)”. Moreover, the “sk_ddG_kJ (SKEMPI experimental ΔΔG of binding, mutation to alanine)” value in assay [2] was 25.90 kJ.

B3: 1A4Y WA261A (protein, UniProt P13489 2-461, looked up, variant W261A)
Ribonuclease inhibitor: SLDIQSLDIQCEELSDARWAELLPLLQQCQVVRLDDCGLTEARCKDISSALRVNPALAELNLRSNELGDVGVHCVLQGLQTPSCKIQKLSLQNCCLTGAGCGVLSSTLRTLPTLQELHLSDNLLGDAGLQLLCEGLLDPQCRLEKLQLEYCSLSAASCEPLASVLRAKPDFKELTVSNNDINEAGVRVLCQGLKDSPCQLEALKLESCGVTSDNCRDLCGIVASKASLRELALGSNKLGDVGMAELCPGLLHPSSRLRTLAIWECGITAKGCGDLCRVLRAKESLKELSLAGNELGDEGARLLCETLLEPGCQLESLWVKSCSFTAACCSHFSSVLAQNRFLLELQISNNRLEDAGVRELCQGLGQPGSVLRVLWLADCDVSDSSCSSLAATLLANHSLRELDLSNNCLGDAGILQLVESVRQPGCLLEQLVLYDIYWSEEMEDRLQALEKDKPSLRVIS
With B3, the sk_class entry in assay [1] is listed as “Neutral (neutral (little effect) 4.184 kJ/mol < ΔΔG > −4.184 kJ/mol)”. In addition, the “sk_ddG_kJ (SKEMPI experimental ΔΔG)” value in assay [2] (single mutation to alanine, sheet sortedByGroup, r_group FAMILYVW) is on record as 0.38 kJ.

B4: 1A22 IB305A (protein, UniProt P10912 19-264, looked up, variant I105A)
extracellular domain: FSGSEATAAILSRAPWSLQSVNPGLKTNSSKEPKFTKCRSPERETFSCHWTDEVHHGTKNLGPIQLFYTRRNTQEWTQEWKECPDYVSAGENSCYFNSSFTSIWAPYCIKLTSNGGTVDEKCFSVDEIVQPDPPIALNWTLLNVSLTGIHADIQVRWEAPRNADIQKGWMVLEYELQYKEVNETKWKMMDPILTTSVPVYSLKVDKEYEVRVRSKQRNSGNYGEFSEVLYVTLPQMSQFTCEEDFY
modifications: extracellular domain
B4: in assay [1] (setting [3]), the “sk_class (class of the SKEMPI experimental ΔΔG)” value is listed as “Neutral (neutral (little effect) 4.184 kJ/mol < ΔΔG > −4.184 kJ/mol)”. Besides, in assay [2], the “sk_ddG_kJ (SKEMPI experimental ΔΔG of binding, mutation to alanine)” value is 0.54 kJ.

B5: 1A22 EB291A (protein, UniProt P10912 19-264, looked up, variant E91A)
extracellular domain: B4 extracellular domain with E91A, A105I
modifications: extracellular domain
B5: the “sk_class (class of the SKEMPI experimental ΔΔG)” value in assay [1] (class by ΔΔG threshold 4.184 kJ/mol, ref SKEMPI) is “Neutral (neutral (little effect) 4.184 kJ/mol < ΔΔG > −4.184 kJ/mol)”. Further, the “sk_ddG_kJ (SKEMPI experimental ΔΔG, mutation to alanine)” value in assay [2] (single mutation to alanine, PPI given by PDBID, sheet sortedByGroup) was 0.75 kJ.

B6: 1KTZ RA25A (protein, UniProt P10600 301-412, looked up, variant R25A)
Transforming growth factor …: ALDTNYCFRNLEENCCVRPLYIDFAQDLGWKWVHEPKGYYANFCSGPCPYLRSADTTHSTVLGLYNTLNPEASASPCCVPQDLEPLTILYYVGRTPKVEQLSNMVVKSCKCS
On to B6, for which the sk_class result in assay [1] is “Positive (positive (a hot residue) ΔΔG ≥ 4.184 kJ/mol)”. Further, the “sk_ddG_kJ (SKEMPI experimental ΔΔG, single mutation to alanine)” value in assay [2] (sheet sortedByGroup) is 6.19 kJ.

B7: 1KTZ RA94A (protein, UniProt P10600 301-412, looked up, variant R94A)
Transforming growth factor …: B6 Transforming growth factor … with A25R, R94A
With B7, the sk_class result in assay [1] is recorded as “Positive (positive (a hot residue) ΔΔG ≥ 4.184 kJ/mol)”. The “sk_ddG_kJ (SKEMPI experimental ΔΔG, single mutation to alanine)” value in assay [2] (sheet sortedByGroup) is reported as 12.05 kJ.

B8: 1IAR EA19A (protein, UniProt P05112 25-153, looked up, variant E19A)
Interleukin-4: HKCDITLQEIIKTLNSLTAQKTLCTELTVTDIFAASKNTTEKETFCRAATVLRQFYSHHEKDTRCLGATAQQFHRHKQLIRFLKRLDRNLWGLAGLNSCPVKEANQSTLENFLERLKTIMREKYSKCSS
Regarding B8, the “sk_class (class of the SKEMPI experimental ΔΔG)” value in assay [1] (setting [4]) is reported as “Neutral (neutral (little effect) 4.184 kJ/mol < ΔΔG > −4.184 kJ/mol)”. Moreover, in assay [2] (setting [5]), the “sk_ddG_kJ (SKEMPI experimental ΔΔG, mutation to alanine)” value was -1.34 kJ.

B9: 1IAR KA84A (protein, UniProt P05112 25-153, looked up, variant K84A)
Interleukin-4: B8 Interleukin-4 with A19E, K84A
For B9, in assay [1] (setting [4]), the “sk_class (class of the SKEMPI experimental ΔΔG)” value is recorded as “Neutral (neutral (little effect) 4.184 kJ/mol < ΔΔG > −4.184 kJ/mol)”. Besides, the “sk_ddG_kJ (SKEMPI experimental ΔΔG, mutation to alanine)” value in assay [2] (setting [5]) is recorded as 1.46 kJ.

B10: 1IAR RA85A (protein, UniProt P05112 25-153, looked up, variant R85A)
Interleukin-4: B8 Interleukin-4 with A19E, R85A
Regarding B10, the “sk_class (class of the SKEMPI experimental ΔΔG)” value in assay [1] (setting [4]) is on record as “Neutral (neutral (little effect) 4.184 kJ/mol < ΔΔG > −4.184 kJ/mol)”. The “sk_ddG_kJ (SKEMPI experimental ΔΔG, mutation to alanine)” value in assay [2] (setting [5]) was 1.80 kJ.

B11: 1IAR KA77A (protein, UniProt P05112 25-153, looked up, variant K77A)
Interleukin-4: B8 Interleukin-4 with A19E, K77A
Take B11: the “sk_class (class of the SKEMPI experimental ΔΔG)” value in assay [1] (setting [4]) is “Neutral (neutral (little effect) 4.184 kJ/mol < ΔΔG > −4.184 kJ/mol)”. Also, the “sk_ddG_kJ (SKEMPI experimental ΔΔG, mutation to alanine)” value in assay [2] (setting [5]) was 0.63 kJ.

B12: 1IAR RA81A (protein, UniProt P05112 25-153, looked up, variant R81A)
Interleukin-4: B8 Interleukin-4 with A19E, R81A
With B12, in assay [1] (setting [4]), the “sk_class (class of the SKEMPI experimental ΔΔG)” value is “Neutral (neutral (little effect) 4.184 kJ/mol < ΔΔG > −4.184 kJ/mol)”. For the same molecule, in assay [2] (setting [5]), the “sk_ddG_kJ (SKEMPI experimental ΔΔG, mutation to alanine)” value is on record as 2.01 kJ.

B13: 1JRH KI47A (protein, UniProt P15260 18-245, looked up, variant K47A)
extracellular domain: EMGTADLGPSSVPTPTNVTIESYNMNPIVYWEYQIMPQVPVFTVEVANYGVKNSEWIDACINISHHYCNISDHVGDPSNSLWVRVKARVGQKESAYAKSEEFAVCRDGKIGPPKLDIRKEEKQIMIDIFHPSVFVNGDEQEVDYDPETTCYIRVYNVYVRMNGSEIQYKILTQKEDDCDEIQCQLAIPVSSLNSQYCVSAEGVLHVWGVTTEKSKEVCITIFNSSIKG
modifications: extracellular domain
With B13, the sk_class result in assay [1] is reported as “Positive (positive (a hot residue) ΔΔG ≥ 4.184 kJ/mol)”. Moreover, the “sk_ddG_kJ (SKEMPI experimental ΔΔG, single mutation to alanine)” value in assay [2] (sheet sortedByGroup) is listed as 16.11 kJ.

B14: 1JRH KI98A (protein, UniProt P15260 18-245, looked up, variant K98A)
extracellular domain: B13 extracellular domain with A47K, K98A
modifications: extracellular domain
As for B14, the sk_class result in assay [1] is “Neutral (neutral (little effect) 4.184 kJ/mol < ΔΔG > −4.184 kJ/mol)”. Also, the “sk_ddG_kJ (SKEMPI experimental ΔΔG, single mutation to alanine)” value in assay [2] (sheet sortedByGroup) was 2.80 kJ.

B15: 1JRH KI52A (protein, UniProt P15260 18-245, looked up, variant K52A)
extracellular domain: B13 extracellular domain with A47K, K52A
modifications: extracellular domain
In the case of B15, the sk_class entry in assay [1] is listed as “Positive (positive (a hot residue) ΔΔG ≥ 4.184 kJ/mol)”. Also, in assay [2] (sheet sortedByGroup), the “sk_ddG_kJ (SKEMPI experimental ΔΔG, single mutation to alanine)” value is 15.86 kJ.

B16: 1JRH RI84A (protein, UniProt P15260 18-245, looked up, variant R84A)
extracellular domain: B13 extracellular domain with A47K, R84A
modifications: extracellular domain
Regarding B16, the sk_class entry in assay [1] is on record as “Positive (positive (a hot residue) ΔΔG ≥ 4.184 kJ/mol)”. The “sk_ddG_kJ (SKEMPI experimental ΔΔG, single mutation to alanine)” value in assay [2] (sheet sortedByGroup) is reported as 4.31 kJ.

The record behind these values is PMC6804253, “Predicting and Experimentally Validating Hot-Spot Residues at Protein–Protein Interfaces” (ACS Chemical Biology, 2019).
